Laboratory results published in patent US20240376151A1, “STAPLED PEPTIDES AND METHODS THEREOF” (FOG PHARMACEUTICALS, INC., priority 2022, published 2024).
Numbered stars: 1 amine (or outer) side, 2 acyl side, 3 side chain; on linkers, the order of the positions; unused ones are H or OH. Bridge positions count the residues as written; N and C are the ends. Ends that are not written are not given here. Phenylene(1,4-NHCOCH2)2 = O=C(C[*:1])Nc1ccc(NC(=O)C[*:2])cc1

Tests used:
MDM2 = target: T1, MDM2 (Homo sapiens, UniProt Q00987); experiment: Naive Library Presenter Screening (phage, NGS), MDM2; assay type: binding; conditions: for interaction data, BLANK: Blank = Media only
T1 construct: made in house

CHIP = target: T2, CHIP (Homo sapiens, UniProt Q9UNE7); experiment: Naive Library Presenter Screening (phage, NGS), CHIP; assay type: binding; conditions: for interaction data at Target Concentration 10: CHIP target concentration 10 nM; for interaction data at Target Concentration 30: CHIP target concentration 30 nM; for interaction data at Target Concentration 100: CHIP target concentration 100 nM; for interaction data at Target Concentration 300: CHIP target concentration 300 nM; for interaction data at Target Concentration 1000: CHIP target concentration 1000 nM
T2 construct: N-term truncated CHIP (also known as STUB1, Uniprot ID: Q9UNE7, residues 23-303); made in house; host or cells: E. coli BL21 CodonPlus
T2 sequence (Q9UNE7 23-303): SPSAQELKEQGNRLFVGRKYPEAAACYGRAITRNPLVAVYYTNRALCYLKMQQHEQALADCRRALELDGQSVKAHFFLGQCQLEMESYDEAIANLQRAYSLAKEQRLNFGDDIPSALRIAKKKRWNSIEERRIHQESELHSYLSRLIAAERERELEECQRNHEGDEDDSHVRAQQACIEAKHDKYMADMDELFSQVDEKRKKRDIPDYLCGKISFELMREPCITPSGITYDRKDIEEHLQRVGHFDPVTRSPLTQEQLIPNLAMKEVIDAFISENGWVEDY
Experimental: To conduct phage library screening, previously described procedures were utilized in accordance with the present disclosure.
Next-generation sequencing was performed as described in accordance with the present disclosure.
Hit ID and Clustering is performed according to a described procedure in accordance with the present disclosure.

[1] = MDM2 clusters (C82, C85), first column
[2] = MDM2 clusters (C82, C85), second column
[3] = MDM2 clusters (C82, C85), target concentration 10 nM
[4] = MDM2 clusters (C82, C85), target concentration 30 nM
[5] = MDM2 clusters (C82, C85), target concentration 100 nM
[6] = MDM2 clusters (C82, C85), target concentration 300 nM
[7] = MDM2 clusters (C82, C85), target concentration 1000 nM, first column
[8] = MDM2 clusters (C82, C85), target concentration 1000 nM, second column
[9] = MDM2 target concentration 10 nM
[10] = MDM2 target concentration 30 nM
[11] = MDM2 target concentration 100 nM
[12] = MDM2 target concentration 300 nM
[13] = MDM2 target concentration 1000 nM, first column
[14] = MDM2 target concentration 1000 nM, second column

T1 sequence (Q00987 25-109): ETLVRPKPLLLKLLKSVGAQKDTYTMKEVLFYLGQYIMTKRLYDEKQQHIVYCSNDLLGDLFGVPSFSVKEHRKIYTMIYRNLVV

Sequence	interaction data, BLANK (MDM2; [1])	interaction data, BLANK (MDM2; [2])	interaction data at Target Concentration 10 (MDM2; [3])	interaction data at Target Concentration 30 (MDM2; [4])	interaction data at Target Concentration 100 (MDM2; [5])	interaction data at Target Concentration 300 (MDM2; [6])	interaction data at Target Concentration 1000 (MDM2; [7])	interaction data at Target Concentration 1000 (MDM2; [8])	interaction data at Target Concentration 10 (CHIP)	interaction data at Target Concentration 30 (CHIP)	interaction data at Target Concentration 100 (CHIP)	interaction data at Target Concentration 300 (CHIP)	interaction data at Target Concentration 1000 (CHIP; first column)	interaction data at Target Concentration 1000 (CHIP; second column)	also measured
DPAAQECFRAAWRCMQD (linker 7-14 via Phenylene(1,4-NHCOCH2)2 (inferred))	0	0	0	0	25	37	34	29							
DPADIVCQDAAFQCFWW (linker 7-14 via Phenylene(1,4-NHCOCH2)2 (inferred))	0	0	0	1	12	33	46	18							
DPADNRCFQAAWDCAFW (linker 7-14 via Phenylene(1,4-NHCOCH2)2 (inferred))															interaction data at Target Concentration 10 (MDM2; [9]): 1; interaction data at Target Concentration 30 (MDM2; [10]): 0; interaction data at Target Concentration 100 (MDM2; [11]): 51; interaction data at Target Concentration 300 (MDM2; [12]): 22; interaction data at Target Concentration 1000 (MDM2; [13]): 20; interaction data at Target Concentration 1000 (MDM2; [14]): 23
DPADSECFQAASDCQYW (linker 7-14 via Phenylene(1,4-NHCOCH2)2 (inferred))															interaction data at Target Concentration 10 (MDM2; [9]): 7; interaction data at Target Concentration 30 (MDM2; [10]): 11; interaction data at Target Concentration 100 (MDM2; [11]): 0; interaction data at Target Concentration 300 (MDM2; [12]): 0; interaction data at Target Concentration 1000 (MDM2; [13]): 5; interaction data at Target Concentration 1000 (MDM2; [14]): 6
DPAENECFTAAWDCMFF (linker 7-14 via Phenylene(1,4-NHCOCH2)2 (inferred))															interaction data at Target Concentration 10 (MDM2; [9]): 0; interaction data at Target Concentration 30 (MDM2; [10]): 0; interaction data at Target Concentration 100 (MDM2; [11]): 7; interaction data at Target Concentration 300 (MDM2; [12]): 51; interaction data at Target Concentration 1000 (MDM2; [13]): 70; interaction data at Target Concentration 1000 (MDM2; [14]): 40
DPAFDSCFSAAWDCMYW (linker 7-14 via Phenylene(1,4-NHCOCH2)2 (inferred))															interaction data at Target Concentration 10 (MDM2; [9]): 3; interaction data at Target Concentration 30 (MDM2; [10]): 0; interaction data at Target Concentration 100 (MDM2; [11]): 27; interaction data at Target Concentration 300 (MDM2; [12]): 92; interaction data at Target Concentration 1000 (MDM2; [13]): 65; interaction data at Target Concentration 1000 (MDM2; [14]): 84
ICYTAWLECE (linker 2-9 via Phenylene(1,4-NHCOCH2)2 (inferred))									0	1	5	9	7	12	
PCWDAWMLCTD (linker 2-9 via Phenylene(1,4-NHCOCH2)2 (inferred))									19	142	542	632	701	581	
PCWEAWLWCSM (linker 2-9 via Phenylene(1,4-NHCOCH2)2 (inferred))									0	0	4	124	194	145	
PCWNAWLYCSN (linker 2-9 via Phenylene(1,4-NHCOCH2)2 (inferred))									0	0	11	105	155	58	
PCWNAWMVCSV (linker 2-9 via Phenylene(1,4-NHCOCH2)2 (inferred))									2	44	334	474	690	691	
PCWSAWLACEL (linker 2-9 via Phenylene(1,4-NHCOCH2)2 (inferred))									0	81	72	130	220	206	
PCYSAWIVCSD (linker 2-9 via Phenylene(1,4-NHCOCH2)2 (inferred))									4	81	123	444	549	468	

More lines, main results first:

interaction data, BLANK (MDM2; [1])	interaction data, BLANK (MDM2; [2])	interaction data at Target Concentration 10 (MDM2; [3])	interaction data at Target Concentration 30 (MDM2; [4])	interaction data at Target Concentration 100 (MDM2; [5])	interaction data at Target Concentration 300 (MDM2; [6])	interaction data at Target Concentration 1000 (MDM2; [7])	interaction data at Target Concentration 1000 (MDM2; [8])	interaction data at Target Concentration 10 (CHIP)	interaction data at Target Concentration 30 (CHIP)	interaction data at Target Concentration 100 (CHIP)	interaction data at Target Concentration 300 (CHIP)	interaction data at Target Concentration 1000 (CHIP; first column)	interaction data at Target Concentration 1000 (CHIP; second column)	Sequence	also measured
0	0	0	0	23	56	53	69							DPAAVQCNTAAFQCYWF (linker 7-14 via Phenylene(1,4-NHCOCH2)2 (inferred))	
0	0	0	37	188	209	160	215							DPADRDCFSAAWACVIR (linker 7-14 via Phenylene(1,4-NHCOCH2)2 (inferred))	
0	0	0	23	158	230	135								DPAERNCFTAAWQCMVW (linker 7-14 via Phenylene(1,4-NHCOCH2)2 (inferred))	
0	0	1	15	170	133	176	188							DPAETDCSQAAFWCYWQ (linker 7-14 via Phenylene(1,4-NHCOCH2)2 (inferred))	
0	0	0	0	9	7	8	11							DPAHNLCFDAAWWCHWQ (linker 7-14 via Phenylene(1,4-NHCOCH2)2 (inferred))	
0	0	1	48	230	375	356	327							DPAHQQCFMAAWRCVVH (linker 7-14 via Phenylene(1,4-NHCOCH2)2 (inferred))	
0	0	0	42	149	156	202	149							DPAHRQCFTAAWRCMMT (linker 7-14 via Phenylene(1,4-NHCOCH2)2 (inferred))	
								4	83	121	285	375	297	PCFEAWVMCEI (linker 2-9 via Phenylene(1,4-NHCOCH2)2 (inferred))	
								0	134	286	457	563	538	PCYSAWITCES (linker 2-9 via Phenylene(1,4-NHCOCH2)2 (inferred))	
								0	0	0	74	143	57	PMCSDAWLFCE (linker 3-10 via Phenylene(1,4-NHCOCH2)2 (inferred))	
